Results: patent US11278600B2, “Human alpha-galactosidase variants” (Codexis, Inc., priority 2014, dated 2022)

What was measured:
Format in all cases: biochemical
[1] = HTP-analysis of yeast culture supernatants, no challenge (MUGal hydrolysis); conditions: activity of the variant/activity of WT GLA (SEQ ID NO: 5), yeast supernatant
How it was run: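 Activity read as 4-methylumbelliferyl α-D-galactopyranoside hydrolysis: fluorescence (355/448 nm) after sodium carbonate stop, following 30-180 min at 37° C with 2 mM MUGal stock at pH 4.6–4.8. Enzyme source is unchallenged culture supernatant of INVSc1 yeast expressing GLA variants, grown 66-84 h at 30° C.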

[2] = HTP-analysis of supernatants pretreated with base (MUGal hydrolysis); conditions: challenge at pH 7.1; activity of the variant/activity of WT GLA (SEQ ID NO: 5); yeast supernatant
How it was run: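 Supernatants from INVSc1 yeast expressing GLA variants (SD-Ura, 66-84 h, 30° C) were mixed with McIlvaine buffer pH 7.0-8.2 or 200 mM sodium bicarbonate pH 9.1-9.7 and held 1-18 h at 37° C. Residual activity was then measured on MUGal at pH 4.8/4.3, 37° C, 30-180 min, by fluorescence (Ex 355/Em 448 nm).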

[3] = HTP-analysis of supernatants pretreated with acid (MUGal hydrolysis); conditions: challenge at pH 4.2; activity of the variant/activity of WT GLA (SEQ ID NO: 5); yeast supernatant
How it was run: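 MUGal hydrolysis was tracked by fluorescence (Ex 355 nm, Em 448 nm) after a 30-180 min reaction at 37° C. in pH 4.8 McIlvaine/citrate buffer, stopped with 1 M sodium carbonate. Beforehand, yeast (INVSc1) culture supernatants carrying GLA variants were held 1-3 h at 37° C. in acidic McIlvaine buffer, pH 3.3-4.3.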

B1: 150 (protein)
chain: LDNGLARTPTMGWLHWERFMCNLDCQEEPDSCISEKLFMEMAELMVSEGWKDAGYEYLCIDDCWMAPQRDSEGRLQADPQRFPHGIRQLANYVHSKGLKLGIYADVGNKTCAGFPGSFGYYDIDAQTFADWGVDLLKFDGCYCDSLENLADGYKHMSLALNHTGRSIVYSCEWPLYMWPFQKPNYTEIRQYCNHWRNFADIDDSWKSIKSILDWTSFNQERIVDVAGPGGWNDPDMLVIGNFGLSWNQQVTQMALWAIMAAPLFMSNDLRHISPQAKALLQDKDVIAINQDPLGKQGYQLRQGDNFEVWERPLSGLAWAVAMINRQEIGGPRSYTIAVASLGKGVACNPACFITQLLPVKRKLGFYEWTSRLRSHINPTGTVLLQLENTMQMSKDLLL
modifications: Synthetic Polypeptide sequence of Variant No. 150 of mature Human GLA
[1]
  Relative Activity of GLA Variants After No Challenge (NC): + (+ = 0.5 to 1.5 relative activity over WT GLA (SEQ ID NO: 5))
[2]
  Relative Activity of GLA Variants After Challenge at pH 7.1: + (+ = 0.5 to 1.5 relative activity over WT GLA (SEQ ID NO: 5))
[3]
  Relative Activity of GLA Variants After Challenge at pH 4.2: + (+ = 0.5 to 1.5 relative activity over WT GLA (SEQ ID NO: 5))

B2: 151 (protein)
chain: LDNGLARTPTMGWLHWERFMCNLDCQEEPDSCISEKLFMEMAELMVSEGWKDAGYEYLCIDDCWMAPQRDSEGRLQADPQRFPHGIRQLANYVHSKGLKLGIYADVGNKTCAGFPGSFGYYDIDAQTFADWGVDLLKFDGCYCDSLENLADGYKHMSLALNSTGRSIVYSCEWPLYMWPFQKPNYTEIRQYCNHWRNFADIDDSWKSIKSILDWTSFNQERIVDVAGPGGWNDPDMLVIGNFGLSWNQQVTQMALWAIMAAPLFMSNDLRHISPQAKALLQDKDVIAINQDPLGKQGYQLRQGDNFEVWERPLSGLAWAVAMINRQEIGGPRSYTIAVASLGKGVACNPACFITQLLPVKRKLGFYEWTSRLRSHINPTGTVLLQLENTMQMSKDLLL
modifications: Synthetic Polypeptide sequence of Variant No. 151 of mature Human GLA
[1]
  Relative Activity of GLA Variants After No Challenge (NC): + (+ = 0.5 to 1.5 relative activity over WT GLA (SEQ ID NO: 5))
[2]
  Relative Activity of GLA Variants After Challenge at pH 7.1: + (+ = 0.5 to 1.5 relative activity over WT GLA (SEQ ID NO: 5))
[3]
  Relative Activity of GLA Variants After Challenge at pH 4.2: + (+ = 0.5 to 1.5 relative activity over WT GLA (SEQ ID NO: 5))

B3: 152 (protein)
chain: LDNGLARTPTMGWLHWERFMCNLDCQEEPDSCISEKLFMEMAELMVSEGWKDAGYEYLCIDDCWMAPQRDSEGRLQADPQRFPHGIRQLANYVHSKGLKLGIYADVGNKTCAGFPGSFGYYDIDAQTFADWGVDLLKFDGCYCDSLENLADGYKHMSLALNRTGRSIVYSCEWPLYMWPFQKPNYTEIRQYCNHWRNFADIDDSWKSIKSILDWTSFNQEKIVDVAGPGGWNDPDMLVIGNFGLSWNQQVTQMALWAIMAAPLFMSNDLRHISPQAKALLQDKDVIAINQDPLGKQGYQLRQGDNFEVWERPLSGLAWAVAMINRQEIGGPRSYTIAVASLGKGVACNPGCFITQLLPVKRKLGFYEWTSRLRSHINPTGTVLLQLENTMQMSKDLLL
modifications: Synthetic Polypeptide sequence of Variant No. 152 of mature Human GLA
[1]
  Relative Activity of GLA Variants After No Challenge (NC): ++ (++ = >1.5 to 2.5 relative activity over WT GLA (SEQ ID NO: 5))
[2]
  Relative Activity of GLA Variants After Challenge at pH 7.1: ++ (++ = >1.5 to 2.5 relative activity over WT GLA (SEQ ID NO: 5))
[3]
  Relative Activity of GLA Variants After Challenge at pH 4.2: ++ (++ = >1.5 to 2.5 relative activity over WT GLA (SEQ ID NO: 5))

B4: 38 (protein)
chain: LDNGLARTPTMGWLHWERFMCNLDCQEEPDSCISEKLFMEMAELMVSEGWKDAGYEYLCIDDCWMAPQRDSEGRLQADPQRFPHGIRQLANYVHSKGLKLGIYASVGNKTCAGFPGSFGYYDIDAQTFADWGVDLLKFDGCYCDSLENLADGYKHMSLALNRTGRSIVYSCEWPLYMWPFQKPNYTEIRQYCNHWRNFADIDDSWKSIKSILDWTSFNQERIVDVAGPGGWNDPDMLVIGNFGLSWNQQVTQMALWAIMAAPLFMSNDLRHISPQAKALLQDKDVIAINQDPLGKQGYQLRQGDNFEVWERPLSGLAWAVAMINRQEIGGPRSYTIAVASLGKGVACNPACFITQLLPVKRKLGFYEWTSRLRSHINPTGTVLLQLENTMQMSKDLLL
modifications: Synthetic Polypeptide sequence of Variant No. 38 of mature Human GLA
[1]
  Relative Activity of GLA Variants After No Challenge (NC): − (− = <0.5 relative activity to WT GLA (SEQ ID NO: 5))
[2]
  Relative Activity of GLA Variants After Challenge at pH 7.1: − (− = <0.5 relative activity to WT GLA (SEQ ID NO: 5))
[3]
  Relative Activity of GLA Variants After Challenge at pH 4.2: + (+ = 0.5 to 1.5 relative activity over WT GLA (SEQ ID NO: 5))

B5: 153 (protein)
chain: LDNGLARTPTMGWLHWERFMCNLDCQEEPDSCISEKLFMEMAELMVSEGWKDAGYEYLCIDDCWMAPQRDSEGRLQADPQRFPHGIRQLANYVHSKGLKLGIYADVGNKTCAGFPGSFGYYDIDAQTFADWGVDLLKFDGCYCDSLENLADGYKHMSLALNRTGRSIVYSCEWPLYMWPFQKPNYTEIRQYCNHWRNFADIDDSWKSIKSILDWTSFNQETIVDVAGPGGWNDPDMLVIGNFGLSWNQQVTQMALWAIMAAPLFMSNDLRHISPQAKALLQDKDVIAINQDPLGKQGYQLRQGDNFEVWERPLSGLAWAVAMINRQEIGGPRSYTIAVASLGKGVACNPACFITQLLPVKRKLGFYEWTSRLRSHINPTGTVLLQLENTMQMSKDLLL
modifications: Synthetic Polypeptide sequence of Variant No. 153 of mature Human GLA
[1]
  Relative Activity of GLA Variants After No Challenge (NC): + (+ = 0.5 to 1.5 relative activity over WT GLA (SEQ ID NO: 5))
[2]
  Relative Activity of GLA Variants After Challenge at pH 7.1: ++ (++ = >1.5 to 2.5 relative activity over WT GLA (SEQ ID NO: 5))
[3]
  Relative Activity of GLA Variants After Challenge at pH 4.2: + (+ = 0.5 to 1.5 relative activity over WT GLA (SEQ ID NO: 5))

B6: 154 (protein)
chain: LDNGLARTPTMGWLHWERFMCNLDCQEEPDSCISEKLFMEMAELMVSEGWKDAGYEYLCIDDCWMAPQRDSEGRLQADPQRFPHGIRQLANYVHSKGLKLGIYADVGNKTCAGFPGSFGYYDIDAQTFADWGVDLLKFDGCYCDSLENLADGYKHMSLALNRTGRSIVYSCEWPLYMWPFQKPNYTEIRQYCNHWRNFADIDDSWKSIKSILDWTSFNQERIVDVAGPGGWNDPDMLVIGNFGLSWNQQVTQMALWAIMAAPLFMSNDLRHISPQAKALLQDKDVIAINQDPLGKQGYQLIQGDNFEVWERPLSGLAWAVAMINRQEIGGPRSYTIAVASLGKGVACNPACFITQLLPVKRTLGFYEWTSRLRSHINPTGTVLLQLENTMQMSKDLLL
modifications: Synthetic Polypeptide sequence of Variant No. 154 of mature Human GLA
[1]
  Relative Activity of GLA Variants After No Challenge (NC): ++ (++ = >1.5 to 2.5 relative activity over WT GLA (SEQ ID NO: 5))
[2]
  Relative Activity of GLA Variants After Challenge at pH 7.1: ++ (++ = >1.5 to 2.5 relative activity over WT GLA (SEQ ID NO: 5))
[3]
  Relative Activity of GLA Variants After Challenge at pH 4.2: + (+ = 0.5 to 1.5 relative activity over WT GLA (SEQ ID NO: 5))

B7: 155 (protein)
chain: LDNGLARTPTMGWLHWERFMCNLDCQEEPDSCISEKLFMEMAELMVSEGWKDAGYEYLCIDDCWMAPQRDSEGRLQADPQRFPHGIRQLANYVHSKGLKLGIYADVGNKTCAGFPGSFGYYDIDAQTFADWGVDLLKFDGCYCDSLENLADGYKHMSLALNRTGRSIVYSCEWPLYMWPFQKPNYTEIRQYCNHWRNFADIDDSWKSIKSILDWTSFNQERIVDVAGPGGWNDPDMLVIGNFGLSWNQQVTQMALWAIMAAPLFMSNDLRHISPQAKALLQDKDVIAINQDPLGKQGYQLLQGDNFEVWERPLSGLAWAVAMINRQEIGGPRSYTIAVASLGKGVACNPACFITQLLPVKRKLGFYEWTSRLRSHINPTGTVLLQLENTMQMSKDLLL
modifications: Synthetic Polypeptide sequence of Variant No. 155 of mature Human GLA
[1]
  Relative Activity of GLA Variants After No Challenge (NC): + (+ = 0.5 to 1.5 relative activity over WT GLA (SEQ ID NO: 5))
[2]
  Relative Activity of GLA Variants After Challenge at pH 7.1: + (+ = 0.5 to 1.5 relative activity over WT GLA (SEQ ID NO: 5))
[3]
  Relative Activity of GLA Variants After Challenge at pH 4.2: + (+ = 0.5 to 1.5 relative activity over WT GLA (SEQ ID NO: 5))

B8: 156 (protein)
chain: LDNGLARTPTMGWLHWERFMCNLDCQEEPDSCISEKLFMEMAELMVSEGWKDAGYEYLCIDDCWMAPQRDSEGRLQADPQRFPHGIRQLANYVHSKGLKLGIYADVGNKTCAGFPGSFGYYDIDAQTFADWGVDLLKFDGCYCDSLENLADGYKHMSLALNRTGRSIVYSCEWPLYMWPFQKPNYTEIRQYCNHWRNFADIDDSWKSIKSILDWTSFNQERIVDVAGPGGWNDPDMLVIGNFGLSWNQQVTQMALWAIMAAPLFMSNDLRHISPQAKALLQDKDVIAINQDPLGKQGYQLRQGDNFEVWERPLSGLAWAVAMINRQEIGGPRSYTIAVASLGKGVACNPACFITQLLPVKRKLGFYEWTSSLRSHINPTGTVLLQLENTMQMSKDLLL
modifications: Synthetic Polypeptide sequence of Variant No. 156 of mature Human GLA
[1]
  Relative Activity of GLA Variants After No Challenge (NC): ++ (++ = >1.5 to 2.5 relative activity over WT GLA (SEQ ID NO: 5))
[2]
  Relative Activity of GLA Variants After Challenge at pH 7.1: ++ (++ = >1.5 to 2.5 relative activity over WT GLA (SEQ ID NO: 5))
[3]
  Relative Activity of GLA Variants After Challenge at pH 4.2: + (+ = 0.5 to 1.5 relative activity over WT GLA (SEQ ID NO: 5))
